Source: patent publication US20260250381A1
Residue numbers refer to the chain shown, from its start.

T1: human TREM2 (human) (UniProt Q9NZC2)
T1 sequence (looked up): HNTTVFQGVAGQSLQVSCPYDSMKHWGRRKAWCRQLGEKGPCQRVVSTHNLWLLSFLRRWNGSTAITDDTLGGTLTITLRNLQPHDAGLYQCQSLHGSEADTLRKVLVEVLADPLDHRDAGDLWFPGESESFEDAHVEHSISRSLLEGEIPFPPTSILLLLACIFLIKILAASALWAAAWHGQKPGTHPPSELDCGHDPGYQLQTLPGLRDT

B1: 6E7 variant V5 (antibody, V domains shown)
VH: EVQLVQSGAEVKKPGESLKISCKGSGYSFTSYWIAWVRQMPGKGLEWMGTIYPGDSDTRYSPSFQGQVTISADKSISTAYLQWSSLKASDTAMYFCARQRTFYYDSSDYFDYWGQGTLVTVSS
VL: DIQMTQSPSSVSASVGDRVTITCRASQGISSWLAWYQQKPGKAPKLLIYAASSLQNGVPSRFSGSGSGTDFTLTISSLQPEDFATYFCQQADSHPRTFGQGTKLEIK
B2: 6E7 variant V26 (antibody, V domains shown)
VH: B1 VH with A35G, F102M, Y112A
VL: B1 VL with N56R, H94Y
B3: 6E7 variant V29 (antibody, V domains shown)
VH: B1 VH with T30K, T50I
VL: B1 VL with H94F
B4: 6E7 variant V27 (antibody, V domains shown)
VH: B1 VH with T50I, S61A, A97V, Q99S
VL: B1 VL with N56R, H94F
B5: 6E7 variant V15 (antibody, V domains shown)
VH: B1 VH with T30A, Q99S
VL: B1 VL with S53W, H94Y
B6: 6E7 variant V16 (antibody, V domains shown)
VH: B1 VH with F29M, T50I, S56G, Q99S
VL: B1 VL with S53N, H94F
B7: 6E7 variant V14 (antibody, V domains shown)
VH: B1 VH with T30G, T50I, S56Q, Q99G
VL: B1 VL with S53R, H94F
B8: 6E7 variant V28 (antibody, V domains shown)
VH: B1 VH with T30Q, Y103F
VL: B1 VL with N56S, H94L
B9: 6E7 variant V17 (antibody, V domains shown)
VH: B1 VH with T30G, T50I, Q99S
VL: B1 VL with L54R, H94S
B10: 6E7 variant V25 (antibody, V domains shown)
VH: B1 VH with T30G, T50L, Q99S
VL: B1 VL with Q55A, H94M
B11: 6E7 variant V24 (antibody, V domains shown)
VH: B1 VH with T50I, T58V, Q99S
VL: B1 VL with N56K, H94F, R96H
B12: 6E7 variant V13 (antibody, V domains shown)
VH: B1 VH with T30G, T50I, P62A, Q99G
VL: B1 VL with N56G, H94M

molecular target: T1, human TREM2 (human); assay: 1st screen, 10 nM Ab

| Binding Signal (fold over 6E7 parental antibody) | Binder |
| --- | --- |
| 2.73 fold | B1 |
| 3.57 fold | B2 |
| 1.53 fold | B3 |
| 5.5 fold | B4 |
| 5.23 fold | B5 |
| 4.01 fold | B6 |
| 4.71 fold | B7 |
| 3.08 fold | B8 |
| 5.37 fold | B9 |
| 4.23 fold | B10 |
| 2.64 fold | B11 |
| 1.31 fold | B12 |

molecular target: T1, human TREM2 (human); assay: 2nd screen, 2 nM Ab

| Binding Signal (fold over 6E7 parental antibody) | Binder |
| --- | --- |
| 1.25 fold | B1 |
| 2.83 fold | B2 |
| 0.84 fold | B3 |
| 5.67 fold | B4 |
| 4.72 fold | B5 |
| 3.57 fold | B6 |
| 2.57 fold | B7 |
| 2.63 fold | B8 |
| 4.22 fold | B9 |
| 3.15 fold | B10 |
| 1.42 fold | B11 |
| 1.15 fold | B12 |

molecular target: T1, human TREM2 (human); assay: 2nd screen, 10 nM Ab

| Binding Signal (fold over 6E7 parental antibody) | Binder |
| --- | --- |
| 2.84 fold | B1 |
| 3.47 fold | B2 |
| 1.67 fold | B3 |
| 5.69 fold | B4 |
| 4.78 fold | B5 |
| 4.04 fold | B6 |
| 4.64 fold | B7 |
| 3.61 fold | B8 |
| 5.51 fold | B9 |
| 4.7 fold | B10 |
| 2.9 fold | B11 |
| 1.35 fold | B12 |
